According to CN109081868A (INST PASTEUR SHANGHAI CAS, dated 2018):

Target: T1, ZIKV E80 (寨卡病毒包膜蛋白N端80%区域, 氨基酸1-409) (Zika virus (2015 South American …, UniProt A0A024B7W1 291-699))
T1 construct: also called ZKE80
Assay: BLI (Octet-Red), biotinylated ZIKV E80 on streptavidin sensor, antibody at 40-0.064 ug/ml in solution

T1 sequence (A0A024B7W1 291-699): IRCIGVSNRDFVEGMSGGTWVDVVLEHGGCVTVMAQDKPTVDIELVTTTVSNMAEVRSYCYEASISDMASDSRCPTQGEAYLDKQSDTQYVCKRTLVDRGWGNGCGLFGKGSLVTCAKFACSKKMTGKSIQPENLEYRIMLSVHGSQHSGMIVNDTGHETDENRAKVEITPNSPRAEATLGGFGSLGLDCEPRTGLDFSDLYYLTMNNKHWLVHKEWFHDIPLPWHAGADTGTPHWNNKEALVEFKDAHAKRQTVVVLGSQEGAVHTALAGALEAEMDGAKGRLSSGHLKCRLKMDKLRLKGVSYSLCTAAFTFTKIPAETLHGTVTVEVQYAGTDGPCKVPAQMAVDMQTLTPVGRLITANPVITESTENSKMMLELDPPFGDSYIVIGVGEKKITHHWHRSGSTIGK

B1: 单克隆抗体5F8 (antibody, V domains shown)
VH: QVQLQQSGAELVRPGVSAKISCKASGYIFTDYAMHWVKQSHAKSLEWIGLISTKSGAANYNQKFTDKATLTVDKSSSTAYLELARLTSEDSAIYYCARNDYLAWLPYWGQGTLVTVSA
VL: DVLMTQTPLSLPVSLGDHASISCRSSQSIVHSNGNTYLEWYLQKPGQSPKLLIYKVSYRFSGVPDRFSGSGSGTDFTLKISRVEAEDLGVYYCFQGSHVPWTFGGGTKLEIK
notes: also called 单抗5F8; 重组5F8
Kd: 15 nM
